doi:10.1101/2025.03.29.646087

Target: SARS-CoV-2 nsp15 with H234A mutation and a N-terminal Strep-Tag II (SARS-CoV-2)
Assay: cryo-EM structure

Work on “SARS-CoV-2 nsp15 with H234A mutation and a N-terminal Strep-Tag II (enzyme)” yielded a stoichiometry N of 6.
